Measurements reported in patent publication US20230167185A1.

B1: IBIIICI scFv (scFv)
scFv: EVRLLQSGAALVRPGASVKLSCTASGFNIKDFNIHWVKQRPEQGLEWIGRIDPENGDAEYVPKFQVRATMTTDTSSNTVYLHLSSLTSGDTAVYYCTTGSYDLDVEYWGQGTTLTVSSGGGGSGGGGSGGGGSGGGGSELQMTQSPSSLSASLGDTVTITCHASQNINVWLSWYQQRPGNIPKLLIYKASTLHTGVPSRFRGSGSGTGFTLTISSLQPEDIATYYCQQGQSYPLTFGAGTKLELK
B2: 14GIIICII scFv (scFv)
scFv: QVQLQQPGAELVMPGASVNLSCKASGYTFTDYWMHWVKQRPGQGLEWIGEIDPSDNFSNLNQNFRGKATLTVDKSSRTAFLQLSSLTSEDSAVYYCAVEDYWGQGTTLTVSSGGGGSGGGGSGGGGSGGGGSDIVMTQATPSVLVTPGEAVSISCRASRSLLHSNGITYLYWFLQRPGQSPQVLIYRMSNLVSGVPDRFSGSGSGTAFTLRISRVEAEDVGVYYCMQHLEFPYTFGGGTKLEIK

How the values were obtained:
[1] = molecular target: UU72 (Clostridium tetani (tetanus toxin))
[2] = molecular target: UU70 (Clostridium tetani (tetanus toxin))
[3] = molecular target: UU71 (Clostridium tetani (tetanus toxin))
[4] = molecular target: UU74 (Clostridium tetani (tetanus toxin))
[5] = molecular target: UU73 (Clostridium tetani (tetanus toxin))
[6] = molecular target: UU24 (Clostridium tetani (tetanus toxin))

| Binder | koff [1] | kon [1] | Kd [2] | koff [2] | kon [2] | koff [3] | kon [3] | Kd [4] | koff [4] | kon [4] | Kd [5] | koff [5] | kon [5] | Kd [6] | koff [6] | kon [6] | Kd [1] | Kd [3] |
| --- | --- | --- | --- | --- | --- | --- | --- | --- | --- | --- | --- | --- | --- | --- | --- | --- | --- | --- |
| B1 | < 1e-05 s⁻¹ | 250000 M⁻¹ s⁻¹ | 0.16 nM | 3.7e-05 s⁻¹ | 230000 M⁻¹ s⁻¹ | < 1e-05 s⁻¹ | 230000 M⁻¹ s⁻¹ | 0.12 nM | 3.3e-05 s⁻¹ | 280000 M⁻¹ s⁻¹ | 0.34 nM | 6.7e-05 s⁻¹ | 200000 M⁻¹ s⁻¹ | 0.12 nM | 2.3e-05 s⁻¹ | 190000 M⁻¹ s⁻¹ | – | – |
| B2 | 0.00034 s⁻¹ | 570000 M⁻¹ s⁻¹ | 0.29 nM | 0.00019 s⁻¹ | 650000 M⁻¹ s⁻¹ | 0.00032 s⁻¹ | 540000 M⁻¹ s⁻¹ | 1.7 nM | 0.00095 s⁻¹ | 570000 M⁻¹ s⁻¹ | 0.87 nM | 0.00044 s⁻¹ | 510000 M⁻¹ s⁻¹ | 0.3 nM | 0.0002 s⁻¹ | 660000 M⁻¹ s⁻¹ | 0.6 nM | 0.6 nM |
